Where “and” joins values, the source holds several entries; their conditions need not be identical. Equal values may be shown once.
T1: GDF15 (ligand used in the GFRAL/RET cell assays) (UniProt Q99988 197-308, limits assumed)
T1 sequence (looked up): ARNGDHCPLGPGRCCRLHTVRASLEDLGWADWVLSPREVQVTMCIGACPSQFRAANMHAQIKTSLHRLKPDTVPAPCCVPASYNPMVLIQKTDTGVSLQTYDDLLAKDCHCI

T2: Human GDF15 Fc (human, UniProt Q99988 195-308, limits assumed, biotinylated (EZ-Link Sulfo-NHS-Biotinylation Kit) in the SPR assay)
T2 construct: also called human GDF15-Fc fusion; biotinylated Human GDF15 Fc; not shown: Fc part
T2 sequence: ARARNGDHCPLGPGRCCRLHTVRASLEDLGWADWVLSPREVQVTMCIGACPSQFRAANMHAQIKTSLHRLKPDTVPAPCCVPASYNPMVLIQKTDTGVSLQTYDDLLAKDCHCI

T3: Cyno GDF15 Fc (cyno, UniProt G7PWZ3 193-308, limits assumed)
T3 construct: also called cyno GDF15-Fc fusion; not shown: Fc part
T3 sequence: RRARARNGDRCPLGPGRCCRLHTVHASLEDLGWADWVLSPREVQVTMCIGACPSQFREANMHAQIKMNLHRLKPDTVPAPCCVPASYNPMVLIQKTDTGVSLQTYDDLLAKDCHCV

T4: Mouse GDF15 Fc (mouse, UniProt Q9Z0J7 189-303, limits assumed)
T4 construct: also called mouse GDF15-Fc fusion; not shown: Fc part
T4 sequence (looked up): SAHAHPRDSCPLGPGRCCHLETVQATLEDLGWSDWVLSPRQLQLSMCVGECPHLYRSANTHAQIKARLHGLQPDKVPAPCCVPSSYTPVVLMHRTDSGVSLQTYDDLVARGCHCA

T5: Human BMP9 (human, UniProt Q9UK05 320-429)
T5 sequence (looked up): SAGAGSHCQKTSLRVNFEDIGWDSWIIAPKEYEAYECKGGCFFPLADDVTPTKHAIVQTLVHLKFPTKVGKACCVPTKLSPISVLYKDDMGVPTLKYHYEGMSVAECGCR

T6: Human Activin B (human, UniProt P09529 293-407)
T6 sequence (looked up): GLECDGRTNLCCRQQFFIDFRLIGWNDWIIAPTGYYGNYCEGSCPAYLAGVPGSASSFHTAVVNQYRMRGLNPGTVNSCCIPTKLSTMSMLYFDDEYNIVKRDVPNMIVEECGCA

T7: GDNF (UniProt P39905 78-211)
T7 sequence (looked up): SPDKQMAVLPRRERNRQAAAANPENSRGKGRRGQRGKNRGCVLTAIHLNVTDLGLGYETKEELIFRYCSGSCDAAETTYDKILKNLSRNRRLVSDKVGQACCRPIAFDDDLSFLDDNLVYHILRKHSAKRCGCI

T8: GDF10 (UniProt P55107 369-478)
T8 sequence (looked up): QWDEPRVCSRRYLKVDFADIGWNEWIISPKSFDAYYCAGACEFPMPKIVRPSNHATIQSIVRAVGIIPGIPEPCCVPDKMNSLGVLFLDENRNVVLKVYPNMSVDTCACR


Columns and labels:
[1] = target: T1, GDF15 (ligand used in the GFRAL/RET …); assay: cell-based or functional assay
Human GDF15 Fc [2] = target: T2, Human GDF15 Fc; assay: SPR Biacore 8K; biotinylated antigen captured, Fab analyte
Experimental: Kinetic analysis was conducted at 25° C. in HBS-EP+running buffer (10 mM HEPES pH 7.4, 150 mM NaCl, 3 mM EDTA, 0.05% Surfactant P20) using a Biacore 8K optical biosensor (Cytiva, Marlborough, MA). The sample compartment was maintained at 10° C. for the duration of the experiment. The Biacore 8K can analyze up to 8 separate interactions in a single cycle.
Each experiment cycle began with an injection (300 s at 2 μL/min) overflow cells 1 and 2 of a 1:100 solution of biotin CAPture reagent (Cytiva) in running buffer. This was followed by an injection (45 s at 10.0 μL/min) of biotinylated human GDF15 (5 nM) overflow cell 2. […] The dissociation of the antibodies were monitored for 3420 s. Finally, an injection (120 s at 10 μL/min) of regeneration solution (6 M Guanidine-HCl in 0.25 M NaOH) overflow cells 1 and 2 prepared the sensor surface for another cycle. Several blank buffer samples were injected (300 s at 30 μL/min) overflow cells 1 and 2 throughout the duration of the experiment and used for reference surface subtraction—each were monitored for the same amount of dissociation time (3420 s) and regenerated under the same conditions as those for the Fab sample injections.

Human GDF15 Fc [3] = target: T2, Human GDF15 Fc; assay: BLI Octet; antigen on sensor, 100 nM Fab (monovalent)
Cyno GDF15 Fc = target: T3, Cyno GDF15 Fc; assay: as above
Mouse GDF15 Fc = target: T4, Mouse GDF15 Fc; assay: as above
Human BMP9 = target: T5, Human BMP9; assay: BLI Octet; IgG on sensor, 100 nM antigen (avid)
Human Activin B = target: T6, Human Activin B; assay: BLI Octet; IgG on sensor, 100 nM antigen (avid)
GDF11 = target: T9, GDF11 (UniProt O95390 299-407); assay: BLI Octet; IgG on sensor
T9 construct: Also used as ligand in the Activin 2B receptor/SMAD reporter assay
T9 sequence (O95390 299-407 limits assumed): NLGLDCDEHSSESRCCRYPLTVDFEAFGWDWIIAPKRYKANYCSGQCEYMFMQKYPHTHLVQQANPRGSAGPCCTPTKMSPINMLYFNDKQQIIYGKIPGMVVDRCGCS

GDNF = target: T7, GDNF; assay: BLI Octet; IgG on sensor
GDF8 = GDF8 (UniProt O14793 267-375); assay: BLI Octet; IgG on sensor
GDF10 = target: T8, GDF10; assay: BLI Octet; IgG on sensor

Binder	GDF15 GFRAL RET pERK Fab IC50 pM [1]	Kd (Human GDF15 Fc [2])	koff (Human GDF15 Fc [2])	kon (Human GDF15 Fc [2])	Kd (Human GDF15 Fc [3])	Kd (Cyno GDF15 Fc)	Kd (Mouse GDF15 Fc)	binding result (Human BMP9)	Kd (Human Activin B)	binding result (GDF11)	binding result (GDNF)	binding result (GDF8)	binding result (GDF10)
GDF15 antibody agent Clone R, IgG (antibody, V domains shown) VH: QVQLQESGPGLVKPSQTLSLTCTVSGGSISSGGIYWTWIRQHPGKGLEWIGAIAYSGSTYYNPSLESRVTISVDTSKNQFSLKLSSVTAADTAVYYCARGIEYQHFDYWGQGTLVTVSS VL: not shown								binds	188 nM	no binding (tested: 100 nM)	no binding (tested: 100 nM)	no binding (tested: 100 nM)	no binding (tested: 100 nM)
GDF15 antibody agent Clone M, Fab (Fab, V domains shown, Fab; CH1 and CL of the Fab not specified; also called Fab of Clone M) VH: QVQLVQSGAEVKKPGASVKVSCKASGYTFDSYGINWVRQAPGQGLEWMGWISAYSGDTAYAQELQGRVTMTTDTSTSTAYMELRSLRSDDTAVYYCVRDTQYGGSPYWGQGTLVTVSS VL: EIVMTQSPATLSVSPGERATLSCRASQSVSSNLAWYQQKPGQAPRLLIYGASTRATGIPARFSGSGSGTEFTLTISSLQSEDFAVYYCQQYNNWPITFGGGTKVEIK	1370 pM	0.599 nM	0.00191 s⁻¹	3.2e+06 M⁻¹ s⁻¹	3.88 nM	1.91 nM	31.4 nM						

The remaining binders from weak to strong by Kd (Human GDF15 Fc [2]), led by results:

GDF15 GFRAL RET pERK Fab IC50 pM [1]	Kd (Human GDF15 Fc [2])	koff (Human GDF15 Fc [2])	kon (Human GDF15 Fc [2])	Kd (Human GDF15 Fc [3])	Kd (Cyno GDF15 Fc)	Kd (Mouse GDF15 Fc)	binding result (Human BMP9)	Kd (Human Activin B)	binding result (GDF11)	binding result (GDNF)	binding result (GDF8)	binding result (GDF10)	Binder
2.1 µM	0.144 nM	0.000576 s⁻¹	3.99e+06 M⁻¹ s⁻¹	1.58 nM	1.56 nM	229 nM							GDF15 antibody agent Clone L, Fab (Fab, V domains shown, Fab; CH1 and CL of the Fab not specified; also called Fab of Clone L) VH: QVQLVQSGAEVKKPGASVKVSCKASGYTFASYDIIWVRQAPGQGLEWMGWISALSGDTVYAQKLQGRVTMTTDTSTSTAYMELRSLRSDDTAVYYCARTRHDTSGIRFDYWGQGTLVTVSS VL: DIQMTQSPSSVSASVGDRVTITCRASQGIDSWLAWYQQKPGKAPKLLIYAASSLQSGVPSRFSGSGSGTDFTLTISSLQPEDFATYYCQQVHSFPITFGGGTKVEIK
701 pM and 1000 pM	0.126 nM	0.0021 s⁻¹	1.66e+07 M⁻¹ s⁻¹	3.68 nM	1.72 nM								GDF15 antibody agent Clone P, Fab (Fab, V domains shown, Fab; CH1 and CL of the Fab not specified; also called Fab of Clone P) VH: QVQLVQSGAEVKKPGATVKVSCKASGYTFDSYGIHWVRQAPGQGLEWMGWITAYSGDTVYAQKLQGRVTMTTDTSTSTAYMELRSLRSDDTAVYYCARESGQTSSALGPWGQGTLVTVSS VL: DIQMTQSPSSVSASVGDRVTITCRASQGISRWLAWYQQKPGKAPKLLIYAASSLQSGVPSRFSGSGSGTDFTLTISSLQPEDFATYYCQQGASFPLTFGGGTKVEIK
24.6 pM	0.117 nM	0.000735 s⁻¹	6.29e+06 M⁻¹ s⁻¹	1.24 nM	1.42 nM	50.9 nM							GDF15 antibody agent Clone H, Fab (Fab, V domains shown, Fab; CH1 and CL of the Fab not specified; also called Fab of Clone H) VH: QVQLVQSGAEVKKPGSSVKVSCKASGGTFSSYYISWVRQAPGQGLEWMGGIAPISGTASYAQKFQGRVTITADESTSTAYMELSSLRSEDTAVYYCARGLAYDGYFDLWGRGTLVTVSS VL: not shown
111 pM	0.0672 nM	0.000259 s⁻¹	3.85e+06 M⁻¹ s⁻¹	1.25 nM	1.38 nM	1.45 nM							GDF15 antibody agent Clone I, Fab (Fab, V domains shown, Fab; CH1 and CL of the Fab not specified; also called Fab of Clone I) VH: QVQLVQSGAEVKKPGASVKVSCKASGYTFTDEGINWVRQAPGQGLEWMGWITAYSGDTVYAQKLQGRVTMTTDTSTSTAYMELRSLRSDDTAVYYCARGPGQYADVDVWGQGTMVTVSS VL: DIQMTQSPSSVSASVGDRVTITCRASQGISSWLAWYQQKPGKAPKLLIYAASSLQSGVPSRFSGSGSGTDFTLTISSLQPEDFATYYCQQANSFPITFGGGTKVEIK
